Where “and” joins values, the source holds several entries; their conditions need not be identical. Equal entries are not always repeated.
T1: HPV 33 VLP抗原 (HPV 33, UniProt P06416 1-499)
T1 sequence: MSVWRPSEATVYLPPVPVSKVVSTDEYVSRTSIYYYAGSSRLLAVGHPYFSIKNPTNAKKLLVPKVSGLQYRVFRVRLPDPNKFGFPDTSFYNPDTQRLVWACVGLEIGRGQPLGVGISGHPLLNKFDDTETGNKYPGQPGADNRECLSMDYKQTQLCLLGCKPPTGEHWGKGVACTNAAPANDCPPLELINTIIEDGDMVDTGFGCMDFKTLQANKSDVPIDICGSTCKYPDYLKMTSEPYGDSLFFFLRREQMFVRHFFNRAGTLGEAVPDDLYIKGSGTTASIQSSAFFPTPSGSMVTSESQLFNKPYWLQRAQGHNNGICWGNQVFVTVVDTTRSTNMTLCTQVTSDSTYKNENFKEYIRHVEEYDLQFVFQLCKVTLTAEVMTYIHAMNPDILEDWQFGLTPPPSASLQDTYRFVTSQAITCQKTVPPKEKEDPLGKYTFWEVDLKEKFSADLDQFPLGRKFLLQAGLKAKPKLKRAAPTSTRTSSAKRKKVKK

T2: HPV 52 VLP抗原 (HPV 52, UniProt Q05138 27-529)
T2 sequence: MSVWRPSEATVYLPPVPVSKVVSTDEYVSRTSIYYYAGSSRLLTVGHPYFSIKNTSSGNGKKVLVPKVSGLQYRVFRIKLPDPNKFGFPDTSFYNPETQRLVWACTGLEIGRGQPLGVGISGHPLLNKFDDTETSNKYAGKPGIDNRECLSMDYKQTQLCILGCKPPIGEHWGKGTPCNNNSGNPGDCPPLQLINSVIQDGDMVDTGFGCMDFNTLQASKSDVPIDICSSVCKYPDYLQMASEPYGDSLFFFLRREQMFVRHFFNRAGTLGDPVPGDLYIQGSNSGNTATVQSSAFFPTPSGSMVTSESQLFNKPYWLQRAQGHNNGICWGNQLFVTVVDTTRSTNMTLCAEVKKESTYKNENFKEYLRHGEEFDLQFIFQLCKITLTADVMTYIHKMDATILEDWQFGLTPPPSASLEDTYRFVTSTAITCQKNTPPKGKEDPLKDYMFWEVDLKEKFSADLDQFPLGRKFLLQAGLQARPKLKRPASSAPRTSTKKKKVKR

T3: HPV 18 VLP抗原 (HPV 18, UniProt P06794 62-568)
T3 sequence: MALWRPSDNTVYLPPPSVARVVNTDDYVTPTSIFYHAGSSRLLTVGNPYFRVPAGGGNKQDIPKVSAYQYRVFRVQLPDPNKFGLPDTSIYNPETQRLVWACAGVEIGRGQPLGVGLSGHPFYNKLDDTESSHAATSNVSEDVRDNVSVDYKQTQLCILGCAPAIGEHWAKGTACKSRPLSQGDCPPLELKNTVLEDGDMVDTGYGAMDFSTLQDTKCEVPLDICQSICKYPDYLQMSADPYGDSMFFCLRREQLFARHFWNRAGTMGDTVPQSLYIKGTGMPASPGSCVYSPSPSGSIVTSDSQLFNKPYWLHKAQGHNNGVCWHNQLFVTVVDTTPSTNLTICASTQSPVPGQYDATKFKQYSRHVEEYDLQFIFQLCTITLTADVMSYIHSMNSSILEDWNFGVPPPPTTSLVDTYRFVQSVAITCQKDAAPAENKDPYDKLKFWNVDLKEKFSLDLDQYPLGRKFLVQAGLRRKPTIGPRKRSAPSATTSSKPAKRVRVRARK

T4: HPV45型衣壳蛋白L1病毒样颗粒(VLP)抗原 (HPV 45型) (UniProt P36741)
T4 sequence: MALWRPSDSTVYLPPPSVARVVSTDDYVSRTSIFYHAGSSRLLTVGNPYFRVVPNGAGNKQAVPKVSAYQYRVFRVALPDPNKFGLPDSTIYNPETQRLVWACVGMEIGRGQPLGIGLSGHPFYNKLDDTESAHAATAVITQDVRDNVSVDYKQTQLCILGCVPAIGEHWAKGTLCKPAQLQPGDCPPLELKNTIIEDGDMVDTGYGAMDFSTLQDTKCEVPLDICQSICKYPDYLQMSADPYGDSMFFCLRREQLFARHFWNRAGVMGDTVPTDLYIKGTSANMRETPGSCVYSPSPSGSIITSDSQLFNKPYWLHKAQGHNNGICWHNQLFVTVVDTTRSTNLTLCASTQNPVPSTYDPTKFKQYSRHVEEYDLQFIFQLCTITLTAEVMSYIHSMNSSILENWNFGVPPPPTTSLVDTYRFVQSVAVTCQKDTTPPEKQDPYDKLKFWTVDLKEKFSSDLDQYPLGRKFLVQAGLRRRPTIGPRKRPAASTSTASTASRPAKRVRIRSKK

B1: 杂交瘤细胞株7A5(CGMCC NO:45706)分泌的鼠源单克隆抗体 (antibody, V domains shown)
VH: QPGAELVKPGASVKLSCKASGYTFTSYWMHWVKQRPGQGLEWIGEINPSNGHTNYNEKFKSKATLTVDKSSSTAYMQLSSLTSEDSAVYYCAPCYGSSYDYYAMDYWGQGTSVTVSS
VL: DIVLTQSPASLAVSLGQRATISCRASQSVSTSSYSYMHWYQQKPGQPPKLLIKYASNLESGVPARFSGSGSGTDFTLNIHPVEEEDTATYYCQHSWEIPYTFGGGTKLEIK
notes: also called 鼠单抗7A5; 抗体7A5
B2: 杂交瘤细胞株11G1(CGMCC NO:45707)分泌的鼠源单克隆抗体 (antibody, V domains shown)
VH: QVQLQQPGAELVKPGASVKLSCKASGYTFTSYWMHWVKRRPGQGLEWIGEINPSNGLTNYNEKFKSKGTLTVDKSSSAAFMHLSSLTSEDSAVYYCARFHGSDLYAMDYWGQGTSVTVSS
VL: B1 VL
notes: also called 鼠单抗11G1; 抗体11G1

How the values were obtained:
HPV 33 VLP抗原 = target: T1, HPV 33 VLP抗原; assay: direct ELISA on coated VLP antigens
HPV 52 VLP抗原 = target: T2, HPV 52 VLP抗原; assay: direct ELISA on coated VLP antigens
HPV 18 VLP抗原 = target: T3, HPV 18 VLP抗原; assay: direct ELISA on coated VLP antigens
[1] = target: T4, HPV45型衣壳蛋白L1病毒样颗粒(VLP)抗原 (HPV 45型); assay: sandwich ELISA, rabbit pAb R163 capture 1:500, mAb 1:20000; antigen 13.3 ug/ml, 2.5-fold series, step 8
[2] = target: T4, HPV45型衣壳蛋白L1病毒样颗粒(VLP)抗原 (HPV 45型); assay: sandwich ELISA, rabbit pAb R163 capture 1:500, mAb 1:20000; antigen 13.3 ug/ml, 2.5-fold series, step 3
[3] = target: T4, HPV45型衣壳蛋白L1病毒样颗粒(VLP)抗原 (HPV 45型); assay: sandwich ELISA, rabbit pAb R163 capture 1:500, mAb 1:20000; antigen 13.3 ug/ml, 2.5-fold series, step 1
[4] = target: T4, HPV45型衣壳蛋白L1病毒样颗粒(VLP)抗原 (HPV 45型); assay: sandwich ELISA, rabbit pAb R163 capture 1:500, mAb 1:20000; antigen 13.3 ug/ml, 2.5-fold series, step 2
[5] = target: T4, HPV45型衣壳蛋白L1病毒样颗粒(VLP)抗原 (HPV 45型); assay: sandwich ELISA, rabbit pAb R163 capture 1:500, mAb 1:20000; antigen 13.3 ug/ml, 2.5-fold series, step 11
[6] = target: T4, HPV45型衣壳蛋白L1病毒样颗粒(VLP)抗原 (HPV 45型); assay: sandwich ELISA, rabbit pAb R163 capture 1:500, mAb 1:20000; antigen 13.3 ug/ml, 2.5-fold series, step 4
[7] = target: T4, HPV45型衣壳蛋白L1病毒样颗粒(VLP)抗原 (HPV 45型); assay: sandwich ELISA, rabbit pAb R163 capture 1:500, mAb 1:20000; column 12, antigen amount not stated (only 11 dilutions described)

| Binder | binding result (HPV 33 VLP抗原) | binding result (HPV 52 VLP抗原) | binding result (HPV 18 VLP抗原) | OD [1] | OD [2] | OD [3] | OD [4] | OD [5] | OD [6] | OD [7] |
| --- | --- | --- | --- | --- | --- | --- | --- | --- | --- | --- |
| B1 | no binding | no binding | no binding | 0.175 OD and 0.189 OD | 2.9 OD and 2.78 OD | 3.12 OD | 3.05 OD and 3 OD | 0.066 OD and 0.056 OD | 2.34 OD and 2.37 OD | 0.067 OD and 0.064 OD |
| B2 | no binding | no binding | no binding | 0.115 OD and 0.108 OD | 2.67 OD and 2.65 OD | 3.1 OD and 3.01 OD | 3.03 OD and 3.09 OD | 0.05 OD and 0.046 OD | 1.82 OD and 1.98 OD | 0.045 OD and 0.05 OD |
